Source: patent US10227575B2, “Multi-domain enzymes having cutinase activity, compositions comprising same and uses thereof” (OZYMES, priority 2015, dated 2019)
Read-outs that look alike come from different tables or passages of the source. Marks after values point to notes of the source that are not given here.

Legend:
[1] = Enzymatic activity in the presence of organic solvents; assay type: biochemical; conditions: buffer only = 100%
Description: Enzyme activity in various organic solvents was studied over a concentration range of 1-30% at room temperature. pNP-palmitate was completely dissolved in 2-propanol (8 mM) and then added to 50 mM Tris/HCl buffer pH 8.0 containing up to 30% organic solvent to give a final substrate concentration of 0.8 mM. The reaction was started by addition of enzyme and the formation of pNP was assayed as described above in Example 20.1.

Temperature optimum = assay type: biochemical; conditions: for Relative activity at temperature: highest activity set to 100%
Description: For estimation of the temperature optimum, buffer containing pNP-palmitate (see esterase assay in Example 20.1) was pre-incubated to reach the desired temperature, enzyme was then added, and the formation of pNP was assayed. For this experiment, Tris/HCl buffer was replaced with sodium phosphate buffer (50 mM, pH 8.0) to avoid a pH shift at the different temperatures.

[2] = assay type: biochemical, Petromyces albertensis; conditions: for Residual ochratoxin A (%): 5 ppm Ochratoxin A, 37° C., relative to incubation without enzyme
Description: The enzymes purified in Example 18 were tested for their ability to degrade the mycotoxin Ochratoxin A. In general, the mycotoxin was incubated with different concentrations of the enzyme, and the remaining mycotoxin concentration, as well the respective degradation products, were monitored by LC-MS over time (where possible/applicable).
Reactions were performed in 1 mL volumes in glass HPLC vials comprising the mycotoxin to be analyzed and the enzyme to be tested. For Ochratoxin A (Petromyces albertensis, 01877 Sigma), 50 μL of a 100 ppm stock solution in methanol (final concentration of 5 ppm) was added to 910 μL of distilled water and 40 μL of the enzyme to be tested. In control reactions, the volume of enzyme was substituted with distilled water. The reactions were incubated in an Eppendorf thermomixer at 37° C. with shaking at 750 rpm. 100 μL samples were withdrawn at 1, 4 and 24 h for chromatographic analysis.
Mycotoxin analysis was carried out using a Shimadzu LCMS-2020 equipped with a UV/vis detector. Chromatographic separation of 10 μL injected sample was carried out at 30° C. on a Kinetex 2.6 μm XB-C18 column 100 Å (50×2.1 mm) using a binary gradient. For Ochratoxin A, eluent A consisted of water and eluent B consisted of acetonitrile and the UV detection wavelength was 360 nm.
The five enzymes tested were screened for their ability to degrade 5 ppm (5,000 ppb) Ochratoxin A at 37° C.

[3] = Circular dichroism spectroscopy, melting temperature and refolding; assay type: physicochemical
Description: CD spectra were recorded using a Jasco™ J-815 spectrometer operating with the Spectra™ Manager software. Temperature was controlled using a Jasco™ PFD-452S peltier unit. Previously purified protein solutions were adjusted to 0.15 mg/mL (if quantities allowed for) and CD spectra were recorded between 190 and 250 nm using a Quartz cuvette (ID=0.1 cm). Blanks containing buffer only were prepared and used as baseline. Temperature dependent protein unfolding was monitored at 222 nm with thermo profiles ranging from 20 up to 90° C. (2° C. min-1). Samples were kept for 5 min at the respective maximum temperature and protein refolding was monitored using the same conditions as above reversing the thermo profiles. Thermodynamic parameters (Tm, ΔH, ΔS, ΔG) for the folding/unfolding process, if applicable, were calculated using the Spectra™ Manager software.

[4] = Specific activity of purified enzymes (standard esterase assay); assay type: biochemical
Description: In summary, using different techniques for enzyme purification, pure enzyme preparations were obtained and tested for their activity towards a standard esterase substrate, pNP-palmitate. Enzymatic activities of the purified variants are summarized below:
(§1) Esterase activity was determined by monitoring the formation of para-nitrophenol (pNP) at 410 nm from various pNP-esters using a Beckman UV spectrophotometer (model DU 640). Substrates were completely dissolved in 2-propanol (8 mM) and were then added to 50 mM Tris/HCl buffer pH 8.0 to give a final substrate concentration of 0.8 mM. The reaction (1 mL) was started by adding an appropriate amount of enzyme. One enzyme unit (U) was defined as the amount of enzyme that produced 1 μmol of product (pNP) per min; specific activity was expressed as U/mg protein. A molar extinction coefficient of 15 mM^−1 cm^−1 was used for the calculation.

[5] = Activity of crude culture supernatants from bioreactor; assay type: biochemical; conditions: pNP-dodecanoate
[6] = Stability in the presence of hydrogen peroxide; assay type: physicochemical
Description: as §1
Purified cutinases were incubated at room temperature in the presence of 0, 30, 100, 300, 1500, and 3000 ppm of hydrogen peroxide. Residual enzyme activity was assayed (see Example 20.1) after 1, 2, 3, and 7 days of incubation.

[7] = Enzyme substrate profiles, esterase assays; assay type: biochemical; conditions: highest activity towards a specific substrate set to 100%
Description: as §1

B1: KrCUT: mature Kineococcus radiotolerans cutinase, amino acids 34-294 of SEQ ID NO: 1; SEQ ID NO: 6 (protein)
chain: ATCSDVDVVFARGTGETPGLGVVGGPFVRSLTGELSDRTVTSHAVDYAASSSQASAGPGATAMSAHVREVAAACPSTRFVLGGYSQGATVTDIALGIRTGTTTGTPVPAELAGRVAAVVVFGNPLGLSGRTIATASSTYGPKSKDYCNSSDSVCGSAPKTGTGGHLSYASNGSTTDGARFAAGLVRAAGTPTTPTPTPTPTPVPTTCVRDSTRDHVAADRAVSLYGRAYARGSRDSLGATSSYNVVSLQQVEGGWRLVTAC
modifications: Kineococcus radiotolerans; (1)..(261) KrCUT (lacking residues 1-33 of ssKrCUT)
- Relative enzymatic activity (%) ([1]; 2-Propanol 5% (v/v)): 55 ± 11%
- Relative enzymatic activity (%) ([1]; 2-Propanol 10% (v/v)): 8%
- Relative enzymatic activity (%) ([1]; Acetone 1% (v/v)): 71 ± 2%
- Relative enzymatic activity (%) ([1]; Acetone 5% (v/v)): 47 ± 7%
- Relative enzymatic activity (%) ([1]; Dimethyl sulfoxide (DMSO) 10% (v/v)): 106 ± 4%
- Relative enzymatic activity (%) ([1]; Dimethyl sulfoxide (DMSO) 20% (v/v)): 14 ± 2%
- Relative enzymatic activity (%) ([1]; Dimethyl sulfoxide (DMSO) 30% (v/v)): 2%
- Relative enzymatic activity (%) ([1]; Dimethylformamide (DMF) 5% (v/v)): 55 ± 11%
- Relative enzymatic activity (%) ([1]; Methanol 10% (v/v)): 91 ± 12%
- Relative enzymatic activity (%) ([1]; Methanol 20% (v/v)): 8%
- Temp. opt. (° C.) (Temperature optimum): 45 °C
- Relative activity at temperature (Temperature optimum; 20 ° C.): 83 ± 5%
- Relative activity at temperature (Temperature optimum; 25 ° C.): 84 ± 4%
- Relative activity at temperature (Temperature optimum; 30 ° C.): 83 ± 4%
- Relative activity at temperature (Temperature optimum; 35 ° C.): 84 ± 4%
- Relative activity at temperature (Temperature optimum; 40 ° C.): 89 ± 6%
- Relative activity at temperature (Temperature optimum; 45 ° C.): 100* %
- Relative activity at temperature (Temperature optimum; 50 ° C.): 90 ± 4%
- Relative activity at temperature (Temperature optimum; 55 ° C.): 38 ± 3%
- Relative activity at temperature (Temperature optimum; 60 ° C.): 15 ± 5%
- Residual ochratoxin A (%) ([2]; 1 h): 63%
- Residual ochratoxin A (%) ([2]; 4 h): 17%
- Residual ochratoxin A (%) ([2]; 24 h): 7%
- Ochratoxin A Degradation per U and h ([2]; per 1 U of enzyme (pNP standard test) and hour at 37° C.): 0.02 µmol
- refolding ([3]; CD at 222 nm): refolding to some extent
- midpoint transition temperature of refolding ([3]; CD at 222 nm, high to low temperature): 42.7 °C
- melting temperature (Tm) ([3]; CD at 222 nm, unfolding): 50.7 °C
- Tm (° C.) ([3]; estimated using CD-spectroscopy): 51 ± 1 °C
- Enzymatic activity of the purified variant ([4]; pNP-palmitate): 197 ± 3 U/mg
- Spec. Act. (U/mg) ([4]; towards pNP-palmitate (standard assay)): 197 ± 3 U/mg
- activity of crude culture supernatant [5]: 1.6 U/mL
- Relative activity (%) after exposure to hydrogen peroxide ([6]; H2O2 30 ppm, Day 0): 100 ± 9%
- Relative activity (%) after exposure to hydrogen peroxide ([6]; H2O2 30 ppm, Day 1): 90 ± 6%
- Relative activity (%) after exposure to hydrogen peroxide ([6]; H2O2 30 ppm, Day 2): 75 ± 3%
- Relative activity (%) after exposure to hydrogen peroxide ([6]; H2O2 30 ppm, Day 3): 75 ± 8%
- Relative activity (%) after exposure to hydrogen peroxide ([6]; H2O2 30 ppm, Day 7): 76 ± 2%
- Relative activity (%) after exposure to hydrogen peroxide ([6]; H2O2 100 ppm, Day 0): 104 ± 6%
- Relative activity (%) after exposure to hydrogen peroxide ([6]; H2O2 100 ppm, Day 1): 91 ± 6%
- Relative activity (%) after exposure to hydrogen peroxide ([6]; H2O2 100 ppm, Day 2): 88 ± 6%
- Relative activity (%) after exposure to hydrogen peroxide ([6]; H2O2 100 ppm, Day 3): 76 ± 2%
- Relative activity (%) after exposure to hydrogen peroxide ([6]; H2O2 100 ppm, Day 7): 66 ± 2%
- Relative activity (%) after exposure to hydrogen peroxide ([6]; H2O2 300 ppm, Day 0): 102 ± 4%
- Relative activity (%) after exposure to hydrogen peroxide ([6]; H2O2 300 ppm, Day 1): 87 ± 2%
- Relative activity (%) after exposure to hydrogen peroxide ([6]; H2O2 300 ppm, Day 2): 74 ± 1%
- Relative activity (%) after exposure to hydrogen peroxide ([6]; H2O2 300 ppm, Day 3): 63 ± 2%
- Relative activity (%) after exposure to hydrogen peroxide ([6]; H2O2 300 ppm, Day 7): 49 ± 4%
- Relative activity (%) after exposure to hydrogen peroxide ([6]; H2O2 1,500 ppm, Day 0): 102 ± 10%
- Relative activity (%) after exposure to hydrogen peroxide ([6]; H2O2 1,500 ppm, Day 1): 80 ± 4%
- Relative activity (%) after exposure to hydrogen peroxide ([6]; H2O2 1,500 ppm, Day 2): 67 ± 4%
- Relative activity (%) after exposure to hydrogen peroxide ([6]; H2O2 1,500 ppm, Day 3): 44 ± 2%
- Relative activity (%) after exposure to hydrogen peroxide ([6]; H2O2 1,500 ppm, Day 7): 11 ± 1%
- Relative activity (%) after exposure to hydrogen peroxide ([6]; H2O2 3,000 ppm, Day 0): 98 ± 9%
- Relative activity (%) after exposure to hydrogen peroxide ([6]; H2O2 3,000 ppm, Day 1): 60 ± 2%
- Relative activity (%) after exposure to hydrogen peroxide ([6]; H2O2 3,000 ppm, Day 2): 33 ± 1%
- Relative activity (%) after exposure to hydrogen peroxide ([6]; H2O2 3,000 ppm, Day 3): 20 ± 4%
- Relative activity (%) after exposure to hydrogen peroxide ([6]; H2O2 3,000 ppm, Day 7): no activity was detected
- Relative activity, pNP-acetate (C2) [7]: 2%
- Relative activity, pNP-butyrate (C4) [7]: 26 ± 2%
- Relative activity, pNP-caprylate (C8) [7]: 25 ± 3%
- Relative activity, pNP-decanoate (C10) [7]: 25 ± 3%
- Relative activity, pNP-myristate (C14) [7]: 100* %
- Relative activity, pNP-palmitate (C16) [7]: 98 ± 6%
